The nanobody polyreactivity screen of Harvey et al. (2022)

Test: yeast display, Sf9 membrane polyspecificity reagent, FACS + sequencing; frameworks hold sequencing errors
Outline: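 Using colony PCR, genes from sorted yeast display clones were amplified, then sequenced on MiSeq at 2 × 250 and filtered by CDR length. The clones had been stained with 10% biotinylated, detergent-solubilized Sf9 membrane reagent for 1 hour at 4 °C and sorted by FACS into low and high (top ~1%) gates on anti-HA and streptavidin fluorescence. Polyreactivity labels come from the gate of origin.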

| Sequence | polyreactivity (PSR sort gate) |
| --- | --- |
| QVQLVESGGGLVQAGGSLRLSCAASGIIFFRNAMGWYRQAPGKERELVAAIRWSGGSSYYADSVKGRYTISRDNAKNTVYLQINSLKPEDTAVYYCNAVTVYKHGSWGQGTQVTVSS | high polyreactivity |
| QVQLVESGGGLVQAGGSLRLSCAASGIIFFSNAMGWYRQAPGKERELVAAITGGSSTNYADSVKGRFTISRDNAKNTVYLQMNSLKPEENAVYYCNAPTKSTPRSEPIPYYEFDYWGQGTQVTVSS | low polyreactivity |
| QVQLVESGGGLVQAGGSLRLSCAASGIIFFWNAMGWYRQAPGKERELVAAISEDGGGTYYADSVKGRFTISRDNAKNTVYLQMNSLKPEDTAVYYCNTDTSPQIVTRRSFDDYWGQGTQVTVSS | low polyreactivity |
| QVQLVESGGGLVQAGGSLRLSCAASGIIFFWNAMGWYRQAPGKERELVAAISEDGGGTYYADSVKGRFTISRDNAKNTVYLQMNSMKPEDTAVYYCNTDTSPQIVTRGSFDDYWGQGTQATVSS | low polyreactivity |
| QVQLVESGGGLVQAGGSLRLSCAASGIIFGDNAMGWYRQAPGKERELVAAIDSGGSTYYADSVKGRFTISRDNAKTTVYCPMNSLKPEDTAVYYCNAVTAFGYSYGGWDYDQYNYWGQGTQVTVSS | low polyreactivity |
| QVQLVESGGGLVQAGGSLRLSCAASGIIFGDNAMGWYRQAPGKERELVAAISSSGTSTNYADSVKGRFTISRDNAKNTVYLQMNSLKPEDSAVYYCAKDVLPPYPQSPSGGDYWGQGTQVTVSS | low polyreactivity |
| QVQLVESGGGLVQAGGSLRLSCAASGIIFGDNAMGWYRQAPVTERELVAAIDSGGSTYYADSVKGRFTISRDNAKNTVYLQMISLKPEDTAVYYCNAVTAFGYSYAGWDYDQYNYWGQGTEVTVSS | low polyreactivity |
| QVQLVESGGGLVQAGGSLRLSCAASGIIFGGNAMGWYRQAPGKERELVATISNGGSTKYADSVKGRFTISRDNAKNTVYLQMNSLKPEYTAVYYCAAQPRVGSYVRSSRGRYNHWGQGTQVTVSS | high polyreactivity |
| QVQLVESGGGLVQAGGSLRLSCAASGIIFGGYAMGWYRQAPGKERELVADISGISSNTYYADSVKGRFTISRDNAKNTVYLQMNSLKPEDTAVYYCAADLTAWWAPVIFYYWGQGTQVTVSS | high polyreactivity |
| QVQLVESGGGLVQAGGSLRLSCAASGIIFGGYAMGWYRQAPGKERELVASITYDGGSTSYEDSVKGRFTISRDNAKNTVYLQMNSLKPEDTAVYYCNAELFSVNGYDYWGQGTQVTVSS | low polyreactivity |
| QVQLVESGGGLVQAGGSLRLSCAASGIIFGGYDMGWYRQAPGKERELVAAISWSGGSTYYADSVKGRFTISRDNAKNTVYLQMNSLKPEDTAVYYCAAAYYAPSRDYYYWGQGTQVTVSS | low polyreactivity |
| QVQLVESGGGLVQAGGSLRLSCAASGIIFGINAMGWYRQAPGKERELVATITSGGGTNYADSVKGRFTISRDNAKNTVYLQMNSLKPEDTAVYYCAKPTYRFYWGDFDYWGQGTQVTVSS | low polyreactivity |
| QVQLVESGGGLVQAGGSLRLSCAASGIIFGKYAMGWYRQAPGKERELVAAINYSGSTYYADSVKGRFTISRDNAKNTVYLQMNSLKPEDTAVYYCAAVLGLDTRYDYWGQGTQVTVSS | high polyreactivity |
| QVQLVESGGGLVQAGGSLRLSCAASGIIFGRNVMGWYRQAPGKERELVAAISWSGGSTYYADSVKGRFTISRDNAKNTVYLQMNSLKPEDTAVYYCAASYWWIPMEYWGQGTQVTVSS | high polyreactivity |
| QVQLVESGGGLVQAGGSLRLSCAASGIIFGRYAMGWYRQSPGKERELVAAISSRGGSTYYADSVKGRFTISRDNAKNTVYLQMNSLKPEDTAVYYCAATWCFLRGSTKYYYWGQGTQVTVSS | high polyreactivity |
| QVQLVESGGGLVQAGGSLRLSCAASGIIFGRYPMGWYRQAPGKERELVAAITSSGITYYADSVKGRFTISRDNAKNTVYLQMNSLKPEDTAVYYCNADYSIPGYYWPYDYWGQGTQVTVSS | low polyreactivity |
| QVQLVESGGGLVQAGGSLRLSCAASGIIFGSYAMGWYRQAPGKERELVAAISRGTSTYYAVSVKGRFTISRDNAKNTVYLQMNSLKPEDSAVYYCAATRQQYGPHSRFVYVNYYYCGQGTQVTVSS | low polyreactivity |
